Results reported in the supplement of paper PMC9112550, “Optimization of the antimicrobial peptide Bac7 by deep mutational scanning” (BMC Biology, 2022).

test system: Escherichia coli TOP10; experiment: shrunken log2 fold change of peptide-encoding DNA abundance (4.5 h post-induction vs induction); higher = less antimicrobial activity (less host growth inhibition); settings: time post-induction: 4.5 h; library: site-saturation at positions 5, 18, 19, 20
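Also: peptides expressed intracellularly from a pBAD plasmid library in pooled LB shake-flask culture, induced with 0.3% L-arabinose, DNA abundance read by NGS, three biological replicates, DESeq2 with apeglm shrinkage.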

Point of comparison: RRIRQRPPRLPRPRPRPGPKPRP, “shrunken log2 fold change” value -0.0957. Against it:
- RRIRDRPPRLPRPRPRPNLRPRP — within 0.2 log units, -0.162
- RRIRERPPRLPRPRPRPIAKPRP — within 0.2 log units, 0.0393
- RRIRDRPPRLPRPRPRPIDPPRP — within 0.2 log units, -0.107
- RRIRVRPPRLPRPRPRPDWFPRP — lower, -0.597
- RRIRERPPRLPRPRPRPFFCPRP — within 0.2 log units, -0.0755
- RRIRPRPPRLPRPRPRPNIPPRP — lower, -0.355
- RRIRVRPPRLPRPRPRPRTFPRP — within 0.2 log units, -0.284
- RRIRRRPPRLPRPRPRPSAIPRP — within 0.2 log units, 0.0689
- RRIRSRPPRLPRPRPRPIVCPRP — within 0.2 log units, 0.0317
- RRIRARPPRLPRPRPRPLDDPRP — higher, 0.875
- RRIRHRPPRLPRPRPRPQDDPRP — within 0.2 log units, 0.0649
- RRIRCRPPRLPRPRPRPKFIPRP — lower, -0.653
- RRIRDRPPRLPRPRPRPPVDPRP — higher, 0.361
- RRIRWRPPRLPRPRPRPHIRPRP — within 0.2 log units, 0.00375
- RRIRARPPRLPRPRPRPSRGPRP — higher, 0.497
- RRIRARPPRLPRPRPRPGEDPRP — higher, 0.814
- RRIRSRPPRLPRPRPRPAWWPRP — higher, 0.23
- RRIRLRPPRLPRPRPRPFNEPRP — within 0.2 log units, -0.255
- RRIRFRPPRLPRPRPRPCFPPRP — lower, -0.407
- RRIRARPPRLPRPRPRPFDHPRP — lower, -0.394
- RRIRKRPPRLPRPRPRPRHRPRP — higher, 0.264
- RRIRYRPPRLPRPRPRPTEAPRP — within 0.2 log units, 0.0329
- RRIRERPPRLPRPRPRPANKPRP — lower, -0.632
- RRIRNRPPRLPRPRPRPFANPRP — within 0.2 log units, -0.0288
- RRIRLRPPRLPRPRPRPIMIPRP — within 0.2 log units, -0.286
- RRIRWRPPRLPRPRPRPVAAPRP — higher, 0.855
- RRIRIRPPRLPRPRPRPFTAPRP — within 0.2 log units, -0.138
- RRIRIRPPRLPRPRPRPGMRPRP — higher, 0.43
- RRIRQRPPRLPRPRPRPFCWPRP — higher, 0.42
- RRIRCRPPRLPRPRPRPHWYPRP — lower, -0.714
- RRIRTRPPRLPRPRPRPYTHPRP — lower, -0.338
- RRIRERPPRLPRPRPRPQCQPRP — higher, 0.158
- RRIRSRPPRLPRPRPRPVQQPRP — within 0.2 log units, -0.00468
- RRIRHRPPRLPRPRPRPSHLPRP — within 0.2 log units, -0.0467
- RRIRYRPPRLPRPRPRPGISPRP — within 0.2 log units, -0.0863
- RRIRVRPPRLPRPRPRPTSFPRP — within 0.2 log units, -0.0728
- RRIRKRPPRLPRPRPRPQEPPRP — within 0.2 log units, 0.01
- RRIRKRPPRLPRPRPRPGDAPRP — higher, 0.571
- RRIRRRPPRLPRPRPRPCWRPRP — within 0.2 log units, 0.00446
- RRIRNRPPRLPRPRPRPEVWPRP — higher, 0.815
- RRIRGRPPRLPRPRPRPCQQPRP — within 0.2 log units, 0.0696
- RRIRTRPPRLPRPRPRPVTGPRP — within 0.2 log units, -0.083
- RRIRLRPPRLPRPRPRPAEMPRP — within 0.2 log units, -0.111
- RRIRLRPPRLPRPRPRPEVNPRP — within 0.2 log units, 0.0855
- RRIRWRPPRLPRPRPRPVLQPRP — higher, 0.177
- RRIRYRPPRLPRPRPRPMSGPRP — lower, -0.748
- RRIRCRPPRLPRPRPRPIYQPRP — lower, -0.306
- RRIRHRPPRLPRPRPRPQYAPRP — within 0.2 log units, -0.00149
- RRIRIRPPRLPRPRPRPCDAPRP — within 0.2 log units, -0.27
- RRIRMRPPRLPRPRPRPGFFPRP — higher, 0.423
- RRIRIRPPRLPRPRPRPSWDPRP — lower, -0.462
- RRIRFRPPRLPRPRPRPGYRPRP — within 0.2 log units, -0.0212
- RRIRCRPPRLPRPRPRPLLVPRP — lower, -0.317
- RRIRDRPPRLPRPRPRPPNAPRP — higher, 0.617
- RRIRMRPPRLPRPRPRPPRCPRP — higher, 1.38
- RRIRYRPPRLPRPRPRPLLFPRP — lower, -0.614
- RRIRYRPPRLPRPRPRPRCAPRP — within 0.2 log units, -0.199
- RRIRGRPPRLPRPRPRPGPAPRP — higher, 1.02
- RRIRYRPPRLPRPRPRPEGKPRP — within 0.2 log units, -0.0361
- RRIRYRPPRLPRPRPRPDTHPRP — within 0.2 log units, -0.22
- RRIRIRPPRLPRPRPRPASHPRP — within 0.2 log units, -0.106
- RRIRFRPPRLPRPRPRPVGVPRP — higher, 0.356
- RRIRMRPPRLPRPRPRPGKYPRP — within 0.2 log units, 0.0424
- RRIRNRPPRLPRPRPRPMPAPRP — within 0.2 log units, -0.142
- RRIRSRPPRLPRPRPRPSQSPRP — within 0.2 log units, -0.242
- RRIRDRPPRLPRPRPRPYMFPRP — within 0.2 log units, -0.244
- RRIRNRPPRLPRPRPRPKQRPRP — higher, 0.432
- RRIRARPPRLPRPRPRPESSPRP — higher, 2.39
- RRIRARPPRLPRPRPRPLHDPRP — higher, 0.341
- RRIRYRPPRLPRPRPRPMMNPRP — lower, -0.367
- RRIRGRPPRLPRPRPRPLLDPRP — higher, 2.07
- RRIRCRPPRLPRPRPRPIADPRP — within 0.2 log units, -0.107
- RRIRMRPPRLPRPRPRPMHGPRP — within 0.2 log units, -0.0683
- RRIRCRPPRLPRPRPRPIIEPRP — lower, -0.851
- RRIRWRPPRLPRPRPRPFYVPRP — lower, -0.348
- RRIRERPPRLPRPRPRPYEEPRP — lower, -0.636
- RRIRFRPPRLPRPRPRPKEWPRP — within 0.2 log units, -0.00364
- RRIRSRPPRLPRPRPRPNDCPRP — within 0.2 log units, -0.00188
- RRIRYRPPRLPRPRPRPFMRPRP — lower, -0.499
- RRIRDRPPRLPRPRPRPSFYPRP — within 0.2 log units, -0.128
- RRIRERPPRLPRPRPRPCFAPRP — within 0.2 log units, 0.0529
- RRIRCRPPRLPRPRPRPGGGPRP — higher, 0.76
- RRIRIRPPRLPRPRPRPFSSPRP — within 0.2 log units, -0.181
- RRIRERPPRLPRPRPRPHKLPRP — lower, -0.635
- RRIRMRPPRLPRPRPRPHGTPRP — higher, 0.148
- RRIRGRPPRLPRPRPRPEMCPRP — higher, 1.4
- RRIRKRPPRLPRPRPRPSIRPRP — lower, -0.375
- RRIRFRPPRLPRPRPRPLHVPRP — within 0.2 log units, -0.208
- RRIRFRPPRLPRPRPRPFNQPRP — within 0.2 log units, -0.161
- RRIRFRPPRLPRPRPRPGFQPRP — within 0.2 log units, 0.0959
- RRIRFRPPRLPRPRPRPYSCPRP — lower, -0.388
- RRIRCRPPRLPRPRPRPAHMPRP — within 0.2 log units, -0.249
- RRIRVRPPRLPRPRPRPCYGPRP — within 0.2 log units, -0.259
- RRIRLRPPRLPRPRPRPTPVPRP — higher, 0.559
- RRIRLRPPRLPRPRPRPEWKPRP — within 0.2 log units, -0.16
- RRIRMRPPRLPRPRPRPFKNPRP — higher, 0.129
- RRIRKRPPRLPRPRPRPKVHPRP — higher, 0.243
- RRIRERPPRLPRPRPRPREAPRP — higher, 0.419
- RRIRTRPPRLPRPRPRPEYHPRP — within 0.2 log units, -0.00732
- RRIRWRPPRLPRPRPRPNEHPRP — within 0.2 log units, -0.113
- RRIRDRPPRLPRPRPRPVVCPRP — higher, 0.26
- RRIRSRPPRLPRPRPRPSVMPRP — lower, -0.391
- RRIRMRPPRLPRPRPRPIEMPRP — within 0.2 log units, -0.0608
- RRIRTRPPRLPRPRPRPSACPRP — within 0.2 log units, -0.277
- RRIRLRPPRLPRPRPRPTSYPRP — lower, -0.395
- RRIRSRPPRLPRPRPRPIVRPRP — within 0.2 log units, -0.11
- RRIRHRPPRLPRPRPRPGGHPRP — higher, 0.125
- RRIRLRPPRLPRPRPRPSTLPRP — lower, -0.552
- RRIRQRPPRLPRPRPRPSSPPRP — higher, 0.167
- RRIRRRPPRLPRPRPRPCSGPRP — within 0.2 log units, -0.0988
- RRIRLRPPRLPRPRPRPYLTPRP — lower, -0.663
- RRIRPRPPRLPRPRPRPQIIPRP — lower, -0.447
- RRIRYRPPRLPRPRPRPHSNPRP — within 0.2 log units, -0.0748
- RRIRARPPRLPRPRPRPVHEPRP — within 0.2 log units, 0.00256
- RRIRHRPPRLPRPRPRPKGEPRP — within 0.2 log units, -0.0141
- RRIRMRPPRLPRPRPRPFYVPRP — lower, -0.514
- RRIRYRPPRLPRPRPRPQISPRP — within 0.2 log units, -0.0191
- RRIRPRPPRLPRPRPRPCTSPRP — within 0.2 log units, -0.0721
- RRIRSRPPRLPRPRPRPFHAPRP — within 0.2 log units, 0.042
- RRIRVRPPRLPRPRPRPANIPRP — within 0.2 log units, -0.156
- RRIRWRPPRLPRPRPRPQLYPRP — higher, 0.185
- RRIRIRPPRLPRPRPRPQLPPRP — within 0.2 log units, -0.0273
- RRIRFRPPRLPRPRPRPMSYPRP — within 0.2 log units, -0.138
- RRIRNRPPRLPRPRPRPVCVPRP — within 0.2 log units, -0.04
- RRIRNRPPRLPRPRPRPTRTPRP — higher, 0.211
- RRIRMRPPRLPRPRPRPCATPRP — higher, 2.58
- RRIRPRPPRLPRPRPRPEPEPRP — higher, 0.433
- RRIRGRPPRLPRPRPRPADGPRP — within 0.2 log units, -0.133
- RRIRIRPPRLPRPRPRPSEAPRP — within 0.2 log units, -0.0351
- RRIRCRPPRLPRPRPRPVNKPRP — within 0.2 log units, -0.196
- RRIRERPPRLPRPRPRPYWTPRP — within 0.2 log units, -0.0954
- RRIRRRPPRLPRPRPRPMPKPRP — within 0.2 log units, 0.0841
- RRIRGRPPRLPRPRPRPWKLPRP — within 0.2 log units, 0.0361
- RRIRKRPPRLPRPRPRPYGFPRP — within 0.2 log units, -0.294
- RRIRCRPPRLPRPRPRPFIVPRP — lower, -0.575
- RRIRHRPPRLPRPRPRPRMVPRP — within 0.2 log units, -0.0236
- RRIRQRPPRLPRPRPRPQCGPRP — within 0.2 log units, -0.133
- RRIRYRPPRLPRPRPRPSCWPRP — lower, -0.349
- RRIRGRPPRLPRPRPRPFPIPRP — higher, 0.21
- RRIRSRPPRLPRPRPRPHCDPRP — lower, -0.38
- RRIRYRPPRLPRPRPRPAQSPRP — higher, 0.256
- RRIRDRPPRLPRPRPRPVKHPRP — within 0.2 log units, -0.0698
- RRIRCRPPRLPRPRPRPISCPRP — within 0.2 log units, -0.0979
- RRIRARPPRLPRPRPRPQRSPRP — higher, 0.17
- RRIRWRPPRLPRPRPRPCTSPRP — within 0.2 log units, -0.174
- RRIRCRPPRLPRPRPRPGCWPRP — higher, 0.569
- RRIRDRPPRLPRPRPRPSTEPRP — higher, 0.301
- RRIRLRPPRLPRPRPRPALAPRP — higher, 0.305
- RRIRYRPPRLPRPRPRPGWYPRP — lower, -0.344
